Laboratory results taken from the supplement of paper PMC9732359.
± gives the uncertainty stated by the source.

experiment: protein stability index of a GFP-peptide fusion (yeast GPS) (PSI 1-4); higher = more stable; sorted into four equal gates, so the index is relative within each strain; conditions: doa10∆
Method in brief: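 Plasmids isolated from each sorting gate were PCR-amplified and Illumina-sequenced, and barcodes assigned the reads to strains. The gates, four of equal size, were set by GFP/Cherry fluorescence ratio on mid-log cultures in leucine-free medium. These cultures were yeast carrying a pooled library of tiled 17-residue yeast protein peptides fused downstream of GFP on a plasmid that also expresses Cherry. The protein stability index is the sum of every gate's read frequency times its gate number.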

In order of falling protein stability index:
1. TEELQTQYATSQKTKTI [SMC2]  3.5 ± 0.24
2. TGESEESSSEDDYEDQD [IRR1]  3.5 ± 0.17
3. TGSIRHRLKLCKSLISE [CSE2]  3.49 ± 0.29
4. TNSHLPAGKQVEISLVN [FAS1]  3.48 ± 0.14
5. TSPEKKDGGDKPPSSAF [YAR002W/NUP60]  3.42 ± 0.13
6. TGLNGSGKSNILDAICF [SMC2]  3.4 ± 0.12
7. TKMFEDRREKAERTMSK [SMC2]  3.4 ± 0.14
8. TDLMSIVQELLDKNLIK [RPC34]  3.39 ± 0.21
9. TNILTKVDINADSAVNR [PRP28]  3.37 ± 0.062
10. TEKLSPLASEESLTNSN [YGL100W/SEH1]  3.36 ± 0.13
11. TNKDNKAELIKPIQNGE [ARP9]  3.34 ± 0.071
12. TNLSGGEKTLSSLALVF [SMC4]  3.34 ± 0.083
13. TDRLSTTQRRYEKAQKD [SMC1]  3.33 ± 0.14
14. TGKIVDVVGTLSRNGKP [FAS1]  3.33 ± 0.15
15. TKENLEVSGENVVEADL [QCR2]  3.33 ± 0.27
16. TIYYVDSDGTRLKGDIF [PRE2]  3.24 ± 0.067
17. TFHDELNLKFKEKWPSL [YML103C/NUP188]  3.23 ± 0.095
18. TLSNAERAKNVNGLLQV [GAL11]  3.22 ± 0.14
19. TENDIKALQSIGQLIGE [RPT4]  3.21 ± 0.082
20. TEEELQAAVPDNAEDDS [BRN1]  3.2 ± 0.094
21. TEHSKVTRFDEKQIEEL [SRB6]  3.2 ± 0.14
22. TFTKKCLENARSQISEK [SIR4]  3.2 ± 0.063
23. TSMTGDANLLEEGETSR [SWI3]  3.2 ± 0.092
24. TFGTKHAADSQNNKPSF [YLR335W/NUP2]  3.16 ± 0.22
25. TNNMEKIIEDLRQKHEF [SMC2]  3.12 ± 0.055
26. TQGGNVNLDNTAVGKAA [RPT5]  3.11 ± 0.053
27. TNVQRIAAYIRRHRNPD [SMC1]  3.1 ± 0.24
28. TSPLYMDPGAPLPVETP [SSN2]  3.09 ± 0.12
29. TNFKEEITDASLNLQYV [YML103C/NUP188]  3.08 ± 0.12
30. TTIDSLNAELESKLIPQ [SMC3]  3.06 ± 0.12
31. TTLNEMFRYKTNLYKLK [PUP3]  3.06 ± 0.14
32. TGNFIIPSGNVWNYTFM [PRP8]  3.05 ± 0.095
33. THPHAADGSSYMEQGNN [SKI6]  3.05 ± 0.073
34. TFDGIRMSSEEVNSLLL [GRR1]  3.03 ± 0.099
35. TGNNLYDRNSNNNHKDK [SWI1]  3.03 ± 0.049
36. TQNSRHYMVHEALNLLK [LIN1]  3.03 ± 0.086
37. TSKSFSKLLYDDVTCDK [SIN4]  3.01 ± 0.077
38. TKTILSGTDGSTIGILL [SRP72]  3 ± 0.064
39. TQVALNESEKDQWLEEY [UBP6]  3 ± 0.1
40. TKLYFDVNEKIRFRIER [RPC25]  2.97 ± 0.11
41. TQTVSGTPPMLHQRTHK [DSN1]  2.97 ± 0.12
42. TESNELIQKLQNSANNN [IRR1]  2.93 ± 0.11
43. TRQSSRNFDTHENYIQD [MCD1]  2.92 ± 0.098
44. TMRKISSETDDDHSQVI [DSN1]  2.91 ± 0.048
45. TGWISKCTAEGIKVSLL [RPC25]  2.9 ± 0.14
46. TPKITAAEKSFKPPKNK [SEC65]  2.9 ± 0.28
47. TLSPNVTDSSLLKLLTR [GRR1]  2.89 ± 0.062
48. TMIKKTTLVTRREELQQ [SMC3]  2.88 ± 0.13
49. TQATSEDGTSASFQIVE [RPC19]  2.88 ± 0.073
50. TITNSSSSSDIIVPDLI [YML103C/NUP188]  2.87 ± 0.081
51. TLVNKSTGLKNASDALK [RPS1B]  2.87 ± 0.11
52. TDAGVLALKLELLDFLT [YJL039C/NUP192]  2.84 ± 0.061
53. TRKAMLDPLEVHMLDFP [PRP8]  2.84 ± 0.061
54. TILCTPTGGKAKLSEGT [RPS27A]  2.83 ± 0.097
55. TNVEDPLAKKQTVRLIK [SIR2]  2.82 ± 0.077
56. TKAQQKTAEQIAAERAA [RPL7B]  2.81 ± 0.17
57. THAQRTGLSQIPNRRFT [PRP8]  2.8 ± 0.048
58. TPAMIPYPGSPMHSIMP [DSN1]  2.8 ± 0.037
59. TDGELDIEFINSLLTIV [RPC34]  2.78 ± 0.095
60. TIIFIDELDAIGTKRFD [RPT5]  2.75 ± 0.069
61. TRHQNTIHAKRKIVFRC [RPN4]  2.75 ± 0.052
62. TTLKSVTIASEIYYDPD [RPO21]  2.75 ± 0.1
63. TGETYQRFVGHKSDVMS [ASC1]  2.73 ± 0.14
64. TNSTYNPASATDNMSGR [YJL039C/NUP192]  2.71 ± 0.058
65. TFEKHDRVEDICERIFE [RRI2]  2.68 ± 0.12
66. TKSSLNDLDYDLIADTI [YML103C/NUP188]  2.64 ± 0.07
67. TSKSLVKRYRLAPTQLS [SIN4]  2.63 ± 0.06
68. TENAIEEKVIERAAQKL [ISW2]  2.61 ± 0.095
69. TKKSKLESTKAETDYVD [DSN1]  2.58 ± 0.073
70. TMMTVEEKPDVTYSDVG [RPT1]  2.58 ± 0.1
71. TSGKVELPKKLLNLPPF [SRB8]  2.57 ± 0.27
72. TELMNRSPLVTPMDESS [SRP72]  2.52 ± 0.071
73. TSPQYIPSPLSSTKPPG [NUT1]  2.51 ± 0.039
74. TINEMMKHLGRSEGNPV [FAS2]  2.5 ± 0.09
75. TEAGFFAIRDDRDHINP [RPT4]  2.49 ± 0.08
76. TDGDSILYYDVLFITPD [BRR2]  2.47 ± 0.068
77. TEQQIEVPEGVTVSIKS [RPL9A]  2.46 ± 0.069
78. TDYLYRRLHDENLMVQR [YCS4]  2.44 ± 0.089
79. TNLGQPHSLATKTTGKC [RPS2]  2.44 ± 0.13
80. TIWCVCDSYLDADKELS [BRR2]  2.39 ± 0.059
81. TFPPEVLARISPELSLQ [RRP43]  2.32 ± 0.073
82. TNHVLEVFSVLGIEAAR [RPO31]  2.21 ± 0.19
83. TGVVYNVTKSSVGVIIN [RPL21A]  2.07 ± 0.09
84. TDLHLPKKEYDDDAVRR [NSL1]  1.99 ± 0.13
85. TDVLEISKQRTFAVILF [YMR129W/POM152]  1.93 ± 0.056
86. TLTKISMLFKTSQKMTS [MCD1]  1.92 ± 0.082
87. TPSTETAASVFKELCYE [PRE3]  1.92 ± 0.048
88. TLENTLKAAFVAIGNTY [RPS2]  1.86 ± 0.16
89. TLKNRGLPLGIAEEKMW [YGR119C/NUP57]  1.8 ± 0.078
90. TISILAAPSGNYKQLTL [RRP43]  1.77 ± 0.035
91. TPSQIGVLLRDAHGVTQ [RPS13]  1.74 ± 0.083
92. TSQYGTPSTETAASVFK [PRE3]  1.71 ± 0.046
93. TSALSELSGLISSAKLD [QCR2]  1.69 ± 0.1
94. TFSWLNAELLDYLFHLL [YLR018C/POM34]  1.64 ± 0.075
95. TMYMEVYTAIYNYCVNK [CDC53]  1.63 ± 0.047
96. TGLCSFDYSVILNSIPA [YJL039C/NUP192]  1.6 ± 0.052
97. TSNWEIYKPLLFEIVSN [SRB8]  1.59 ± 0.062
98. TRKAARPQKLRASLVPG [RPL6A]  1.47 ± 0.21
99. THLEIEPFTILGAVAGL [RET1]  1.42 ± 0.041
100. TDLRFQSSAIGALQESV [HHT1]  1.32 ± 0.13
101. TLFCCLLRSRLATRRVL [RPO21]  1.31 ± 0.068
102. TKFSKLIGRPPLLVPGM [FAS1]  1.16 ± 0.071
